Experimental data from the supplement of paper PMC9112550, “Optimization of the antimicrobial peptide Bac7 by deep mutational scanning” (BMC Biology, 2022).

test system: Escherichia coli TOP10; test: shrunken log2 fold change of peptide-encoding DNA abundance (4.5 h post-induction vs induction); higher = less antimicrobial activity (less host growth inhibition); details: time post-induction: 4.5 h; library: site-saturation at positions 5, 18, 19, 20
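Note: peptides expressed intracellularly from a pBAD plasmid library in pooled LB shake-flask culture, induced with 0.3% L-arabinose, DNA abundance read by NGS, three biological replicates, DESeq2 with apeglm shrinkage.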

Sequence	shrunken log2 fold change
RRIRKRPPRLPRPRPRPFFCPRP	0.232
RRIRERPPRLPRPRPRPYWVPRP	-0.338
RRIRRRPPRLPRPRPRPNMHPRP	0.0848
RRIRVRPPRLPRPRPRPYRDPRP	-0.278
RRIRMRPPRLPRPRPRPMQEPRP	0.0303
RRIRVRPPRLPRPRPRPPHKPRP	0.274
RRIRIRPPRLPRPRPRPLMEPRP	-0.278
RRIRCRPPRLPRPRPRPLMIPRP	-0.431
RRIRIRPPRLPRPRPRPVFAPRP	0.0576
RRIRIRPPRLPRPRPRPEGQPRP	-0.0492
RRIRSRPPRLPRPRPRPLKYPRP	-0.653
RRIRQRPPRLPRPRPRPPIYPRP	-0.129
RRIRTRPPRLPRPRPRPRGEPRP	0.152
RRIRQRPPRLPRPRPRPFYIPRP	0.0172
RRIRERPPRLPRPRPRPLDIPRP	-0.0284
RRIRKRPPRLPRPRPRPGVDPRP	0.824
RRIRLRPPRLPRPRPRPVLEPRP	-0.335
RRIRERPPRLPRPRPRPCRIPRP	-0.0965
RRIRFRPPRLPRPRPRPPMCPRP	-0.0102
RRIRMRPPRLPRPRPRPPMTPRP	0.789
RRIRERPPRLPRPRPRPFFYPRP	-0.258
RRIRARPPRLPRPRPRPCDHPRP	0.0696
RRIRIRPPRLPRPRPRPYENPRP	-0.255
RRIRIRPPRLPRPRPRPCTMPRP	-0.0242
RRIRPRPPRLPRPRPRPTAKPRP	0.152

Sequence	shrunken log2 fold change
RRIRLRPPRLPRPRPRPGDRPRP	-0.0244
RRIRNRPPRLPRPRPRPTENPRP	0.0685
RRIRYRPPRLPRPRPRPRTSPRP	-0.169
RRIRCRPPRLPRPRPRPPSFPRP	0.175
RRIRARPPRLPRPRPRPHSIPRP	-0.344
RRIRQRPPRLPRPRPRPASNPRP	-0.00674
RRIRKRPPRLPRPRPRPDQFPRP	-0.0391
RRIRDRPPRLPRPRPRPYMQPRP	-0.0171
RRIRYRPPRLPRPRPRPGPYPRP	-0.771
RRIRRRPPRLPRPRPRPCANPRP	-0.0911
RRIRCRPPRLPRPRPRPHAAPRP	0.31
RRIRYRPPRLPRPRPRPLAKPRP	0.19
RRIRRRPPRLPRPRPRPMVIPRP	-0.189
RRIRRRPPRLPRPRPRPIPFPRP	-0.175
RRIRPRPPRLPRPRPRPLTNPRP	-0.521
RRIRLRPPRLPRPRPRPYEYPRP	-0.132
RRIRSRPPRLPRPRPRPRFDPRP	0.248
RRIRKRPPRLPRPRPRPAGWPRP	0.893
RRIRLRPPRLPRPRPRPRGEPRP	0.207
RRIRPRPPRLPRPRPRPWPEPRP	0.0423
RRIRKRPPRLPRPRPRPPHHPRP	0.322
RRIRNRPPRLPRPRPRPCTAPRP	0.022
RRIRMRPPRLPRPRPRPALDPRP	0.94
RRIRIRPPRLPRPRPRPSDQPRP	-0.528
RRIRNRPPRLPRPRPRPPLWPRP	0.539

Sequence	shrunken log2 fold change
RRIRSRPPRLPRPRPRPHVVPRP	0.0681
RRIRWRPPRLPRPRPRPNKTPRP	0.0629
RRIRQRPPRLPRPRPRPFQCPRP	-0.247
RRIRKRPPRLPRPRPRPLCEPRP	0.446
RRIRDRPPRLPRPRPRPRKDPRP	-0.108
RRIRHRPPRLPRPRPRPINYPRP	-0.248
RRIRRRPPRLPRPRPRPWTHPRP	0.0267
RRIRLRPPRLPRPRPRPTRYPRP	0.0777
RRIRYRPPRLPRPRPRPSLRPRP	-0.9
RRIRRRPPRLPRPRPRPEQWPRP	-0.173
RRIRKRPPRLPRPRPRPVRSPRP	2.24
RRIRFRPPRLPRPRPRPFDIPRP	-0.182
RRIRQRPPRLPRPRPRPRDWPRP	1.63
RRIRLRPPRLPRPRPRPLNRPRP	-0.317
RRIRTRPPRLPRPRPRPVFTPRP	-0.105
RRIRDRPPRLPRPRPRPRTLPRP	0.14
RRIRPRPPRLPRPRPRPPKTPRP	0.246
RRIRSRPPRLPRPRPRPGLLPRP	-0.0369
RRIRFRPPRLPRPRPRPATRPRP	0.193
RRIRSRPPRLPRPRPRPQTEPRP	-0.0463
RRIRQRPPRLPRPRPRPESYPRP	-0.0748
RRIRVRPPRLPRPRPRPWYVPRP	-0.971
RRIRWRPPRLPRPRPRPCWAPRP	0.197
RRIRFRPPRLPRPRPRPSPAPRP	0.176
RRIRGRPPRLPRPRPRPWGNPRP	0.0898

Sequence	shrunken log2 fold change
RRIRHRPPRLPRPRPRPPDQPRP	0.594
RRIRQRPPRLPRPRPRPYNIPRP	-0.395
RRIRGRPPRLPRPRPRPVKWPRP	0.47
RRIRRRPPRLPRPRPRPRRAPRP	0.655
RRIRGRPPRLPRPRPRPMTAPRP	0.692
RRIRNRPPRLPRPRPRPKFWPRP	0.177
RRIRTRPPRLPRPRPRPVLDPRP	-0.0579
RRIRERPPRLPRPRPRPSIAPRP	-0.259
RRIRSRPPRLPRPRPRPKIDPRP	-0.000854
RRIRNRPPRLPRPRPRPDYYPRP	-1.4
RRIRIRPPRLPRPRPRPCDRPRP	-0.563
RRIRVRPPRLPRPRPRPVFVPRP	-0.0229
RRIRSRPPRLPRPRPRPEDIPRP	-0.0081
RRIRERPPRLPRPRPRPMKFPRP	-0.0657
RRIRRRPPRLPRPRPRPRHIPRP	0.945
RRIRGRPPRLPRPRPRPQTPPRP	1.36
RRIRRRPPRLPRPRPRPRFIPRP	0.00289
RRIRPRPPRLPRPRPRPESGPRP	0.415
RRIRLRPPRLPRPRPRPKSMPRP	-0.0449
RRIRIRPPRLPRPRPRPTNLPRP	-0.606
RRIRARPPRLPRPRPRPDVIPRP	0.0534
RRIRFRPPRLPRPRPRPCCIPRP	-0.313
RRIRTRPPRLPRPRPRPEFKPRP	0.0563
RRIRRRPPRLPRPRPRPNPIPRP	0.208
RRIRYRPPRLPRPRPRPDGHPRP	-0.024

Sequence	shrunken log2 fold change
RRIRRRPPRLPRPRPRPKHSPRP	0.0683
RRIRQRPPRLPRPRPRPETEPRP	0.0982
RRIRRRPPRLPRPRPRPVATPRP	1.15
RRIRSRPPRLPRPRPRPGDFPRP	0.0535
RRIRQRPPRLPRPRPRPLFDPRP	-0.607
RRIRERPPRLPRPRPRPENPPRP	0.142
RRIRHRPPRLPRPRPRPNKCPRP	-0.431
RRIRNRPPRLPRPRPRPTPTPRP	0.674
RRIRWRPPRLPRPRPRPVIVPRP	-0.0785
RRIRWRPPRLPRPRPRPFQLPRP	-0.316
RRIRKRPPRLPRPRPRPYHNPRP	-0.227
RRIRMRPPRLPRPRPRPSCRPRP	0.46
RRIRFRPPRLPRPRPRPGEKPRP	0.084
RRIRPRPPRLPRPRPRPYIEPRP	-0.322
RRIRERPPRLPRPRPRPSYGPRP	-0.708
RRIRQRPPRLPRPRPRPGLLPRP	-0.0475
RRIRMRPPRLPRPRPRPNLKPRP	0.158
RRIRIRPPRLPRPRPRPSYWPRP	-0.781
RRIRWRPPRLPRPRPRPRAHPRP	0.167
RRIRTRPPRLPRPRPRPMFKPRP	-0.122
RRIRFRPPRLPRPRPRPMFVPRP	0.109
RRIRLRPPRLPRPRPRPYKFPRP	-0.447
RRIRHRPPRLPRPRPRPTPQPRP	0.541
RRIRVRPPRLPRPRPRPYYHPRP	-0.877
RRIRKRPPRLPRPRPRPGPKPRP	1.15

Sequence	shrunken log2 fold change
RRIRRRPPRLPRPRPRPTHKPRP	0.783
RRIRTRPPRLPRPRPRPAMKPRP	-0.125
RRIRNRPPRLPRPRPRPHDEPRP	-0.103
RRIRMRPPRLPRPRPRPPFTPRP	0.309
RRIRRRPPRLPRPRPRPRHQPRP	0.277
RRIRNRPPRLPRPRPRPSNHPRP	-0.603
RRIRERPPRLPRPRPRPPHNPRP	0.637
RRIRWRPPRLPRPRPRPVPGPRP	0.491
RRIRSRPPRLPRPRPRPNDNPRP	-0.57
RRIRIRPPRLPRPRPRPDMWPRP	-0.271
RRIRTRPPRLPRPRPRPTYIPRP	-0.603
RRIRKRPPRLPRPRPRPAVNPRP	-0.0383
RRIRYRPPRLPRPRPRPDQDPRP	-0.0701
RRIRKRPPRLPRPRPRPPWNPRP	0.136
RRIRIRPPRLPRPRPRPQVFPRP	-0.0107
RRIRYRPPRLPRPRPRPRNHPRP	-0.336
RRIRTRPPRLPRPRPRPKTTPRP	0.0871
RRIRLRPPRLPRPRPRPSVLPRP	-0.779
RRIRDRPPRLPRPRPRPQKYPRP	-0.432
RRIRFRPPRLPRPRPRPCNAPRP	-0.23
RRIRYRPPRLPRPRPRPPHAPRP	-0.0606
RRIRLRPPRLPRPRPRPKQQPRP	-0.134
RRIRHRPPRLPRPRPRPPTNPRP	0.101
RRIRSRPPRLPRPRPRPGYWPRP	-0.0968
RRIRPRPPRLPRPRPRPNQCPRP	-0.0767
